# Measurements from US20190184035, “BCL11A HOMING ENDONUCLEASE VARIANTS, COMPOSITIONS, AND METHODS OF USE” (bluebird bio, Inc., published 2019).
# B1: BCL11A HE target site (dsDNA)
# DNA 1: CAGTTGCTTTTATCACAGGCTC
# DNA 2: GAGCCTGTGATAAAAGCAACTG
# What was measured:
# [1] = tested on: CCR5 megaTAL (Artificial); assay: cell_activity; settings: human CD34+ cells; full megaTAL site not given, HE site given
# [2] = target: T1, BCL11A.B4.A3 I-OnuI homing endonuclease variant (mammalian expression) (Ophiostoma novo-ulmi); assay: cell_activity; HEK 293T chromosomal mCherry reporter; settings: tags: mammalian expression plasmid
# T1 chain: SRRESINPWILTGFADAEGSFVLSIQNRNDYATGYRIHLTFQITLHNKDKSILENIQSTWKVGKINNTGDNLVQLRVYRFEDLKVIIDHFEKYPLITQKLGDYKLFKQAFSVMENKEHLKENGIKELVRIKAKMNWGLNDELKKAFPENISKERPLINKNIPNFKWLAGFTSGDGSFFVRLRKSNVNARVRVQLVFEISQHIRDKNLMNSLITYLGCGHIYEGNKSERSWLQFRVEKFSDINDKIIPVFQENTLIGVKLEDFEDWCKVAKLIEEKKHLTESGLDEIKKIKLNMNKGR
# Method: The activity of reprogrammed I-OnuI HEs that target the GATA-1 motif in the BCL11A gene was measured using a chromosomally integrated fluorescent reporter system (Certo et. al., 2011). Fully reprogrammed I-OnuI HEs that bind and cleave the BCL11A target sequence were cloned into mammalian expression plasmids and then individually transfected into a HEK 293T […] cell line that was reprogrammed to contain the BCL11A target sequence upstream of an out-of-frame gene encoding the fluorescent mCherry protein. Cleavage of the embedded target site by the HE and the subsequent accumulation of small insertions or deletions, caused by DNA repair via the non-homologous end joining (NHEJ) pathway, results in approximately one out of three repaired loci placing the fluorescent reporter gene back “in-frame”. mCherry fluorescence is therefore a readout of endonuclease activity at the chromosomally embedded target sequence. […] FIG. 4A.
# A secondary I-OnuI variant library was generated by performing random mutagenesis one of the reprogrammed I-OnuI HEs that targets the BCL11A target site, identified in the initial reporter screen (BCL11.A.B4, SEQ ID NO: 6). In addition, display-based flow sorting was performed under more stringent cleavage conditions (pH adjusted to 7.2) in an effort to isolate variants with improved catalytic efficiency. FIG. 4B. […]
# [3] = target: T2, BCL11A.B4.A3 I-OnuI homing endonuclease variant (Ophiostoma novo-ulmi); assay: flow; yeast surface display equilibrium binding titration
# T2 chain: T1 chain
# Source text: The DNA binding affinity and cleavage specificity of the I-OnuI variant BCL11A.B4.A3 was characterized. A plasmid encoding the BCL11A.B4.A3 variant identified during reprogramming (SEQ ID NO: 34) was transformed into S. cerevisiae for surface display.
Molecule,activity [1] [% indels],activity [2] [fold vs BCL11A.B4],Kd [3] [nM]
CTTCCAGGAATTCTTTGGCCTG (double strand) [CCR5 HE target site],10,–,–
B1,–,~3,~0.5
